± gives the uncertainty stated by the source.

This series in a line: protein stability index of a GFP-peptide fusion (yeast GPS) (PSI 1-4); higher = more stable; sorted into four equal gates, so the index is relative within each strain. Put shortly: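 For each peptide, the protein stability index sums the read frequency in every gate after multiplying it by the gate number. Read frequencies came from plasmids that were PCR-amplified from each gate and Illumina-sequenced, with reads assigned to strains by barcodes. The gates were four equal bins of GFP/Cherry fluorescence ratio applied to mid-log yeast in leucine-free medium carrying a pooled library of tiled 17-residue yeast protein peptides fused downstream of GFP on a Cherry-expressing plasmid.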

For the sequence VVLVSGEGERFTVDKKI [SKP1], the protein stability index is, setting by setting: (doa10∆) 3.53 ± 0.11; (pdr5∆) 3.6 ± 0.12; (san1∆) 3.28 ± 0.075; (ubr1∆) 2.97 ± 0.094.
The corresponding values for VVNDLVGEKLVVVVLEE [SIR3] are 3.42 ± 0.076, 3.18 ± 0.067, 3.42 ± 0.042 and 3.53 ± 0.081.
As for VVPDLGHLNGHTPTIAS [SSN2], the protein stability index was found to be 2.15 ± 0.045 (doa10∆), 2.65 ± 0.055 (pdr5∆), 2.69 ± 0.048 (san1∆) and 2.59 ± 0.038 (ubr1∆).
On to VVRNMLALTTLSEPLIK [YCG1], for which the protein stability index stood at 1.87 ± 0.07 (doa10∆), 1.6 ± 0.059 (pdr5∆), 1.4 ± 0.11 (san1∆) and 1.66 ± 0.061 (ubr1∆).
Take VVSAVGEARNDIENKEE [YAR002W/NUP60]: the protein stability index reads like this: (doa10∆) 2.92 ± 0.056; (pdr5∆) 3.17 ± 0.066; (san1∆) 3.08 ± 0.041; (ubr1∆) 2.9 ± 0.076.
For VVSLKEGMFANANRVFR [SMC2] the same measures were 2.84 ± 0.071, 3.11 ± 0.11, 3.26 ± 0.06 and 3.18 ± 0.062.
For VVVVGTVTDDARIFEFP [RPL18A] the same measures were 2.75 ± 0.14, 2.9 ± 0.097, 2.6 ± 0.15 and 2.79 ± 0.092.
Regarding VVWYQRLTMGNVFTPEI [RRI2], the protein stability index by setting is: (doa10∆) 2.03 ± 0.074; (pdr5∆) 2.3 ± 0.058; (san1∆) 2.27 ± 0.12; (ubr1∆) 2.45 ± 0.073.
On to VWAPTQKCFKLTHRLGG [POP1], for which the protein stability index by setting is: (doa10∆) 2.2 ± 0.056; (pdr5∆) 1.88 ± 0.056; (san1∆) 2.3 ± 0.085; (ubr1∆) 2.47 ± 0.054.
As for VWFSHPRRFGKGSRQCR [RPS29B], the protein stability index is 3.02 ± 0.1 (doa10∆), 3.21 ± 0.065 (pdr5∆), 3.44 ± 0.091 (san1∆) and 3.23 ± 0.071 (ubr1∆).
The corresponding values for VYESEMEQCKQRYQDLS [YIL149C/MLP2] are 3.27 ± 0.09, 3.36 ± 0.11, 3.03 ± 0.081 and 3.24 ± 0.094.
For VYINPSGEKIDFLLSDW [BRR2] the same measures were 1.61 ± 0.1, 2.49 ± 0.097, 3.22 ± 0.12 and 2.38 ± 0.073.
The corresponding values for VYTAIYNYCVNKSRSSG [CDC53] are 2.48 ± 0.074, 2.62 ± 0.057, 2.61 ± 0.053 and 2.71 ± 0.043.
The sequence VYTLACRSCPYEFPIEG [RPC11] returned a protein stability index (doa10∆) of 1.22 ± 0.16, a protein stability index (pdr5∆) of 1.36 ± 0.15 and a protein stability index (ubr1∆) of 1.54 ± 0.17.
On to VYTQSNGKTRTLENTLK [RPS2], for which the protein stability index came out at 3.45 ± 0.17 (doa10∆), 3.16 ± 0.1 (pdr5∆), 3.24 ± 0.075 (san1∆) and 3.38 ± 0.07 (ubr1∆).
The corresponding values for WAVTLDTSRPDLEWQEL [DSN1] are 3.35 ± 0.072, 3.18 ± 0.065, 3.13 ± 0.047 and 3.14 ± 0.033.
On to WCTTCKSAENIIKMTIP [RET1], for which the protein stability index is, setting by setting: (doa10∆) 3.08 ± 0.077; (pdr5∆) 3.1 ± 0.095; (san1∆) 3.11 ± 0.067; (ubr1∆) 3.03 ± 0.071.
For WDDHTKKPLSMALNKVL [CDC53] the same measures were 1.99 ± 0.069, 2.29 ± 0.076, 2.36 ± 0.056 and 1.94 ± 0.048.
For WDLVDERTKQRTAKAYL [PRP8], the protein stability index came to 3.18 ± 0.12 (doa10∆), 3.6 ± 0.23 (pdr5∆), 3.09 ± 0.074 (san1∆) and 3.1 ± 0.1 (ubr1∆).
Take WEHTAAEDQILANFVAK [SRB8]: the protein stability index is, setting by setting: (pdr5∆) 2.5 ± 0.17; (ubr1∆) 2.57 ± 0.11.
For the sequence WEQLKITVVPVVAAAED [QCR6], the protein stability index was 1.89 ± 0.059 (doa10∆), 2.14 ± 0.059 (pdr5∆), 1.99 ± 0.099 (san1∆) and 2.03 ± 0.033 (ubr1∆).
For WIKFDQELYNELCKKNE [RPN7] the same measures were 3.12 ± 0.13, 3.05 ± 0.28, 2.79 ± 0.17 and 3.1 ± 0.17.
The corresponding values for WKQDLTKEEAIKLASDA [PUP1] are 2.81 ± 0.19, 3.16 ± 0.14, 2.2 ± 0.14 and 3.01 ± 0.16.
For WKYNNFLQKFEIAFHLT [YML103C/NUP188] the same measures were 2.36 ± 0.048, 2.19 ± 0.032, 2.01 ± 0.052 and 2.36 ± 0.027.
In the case of WLAEKFQKETNMKVTIL [PRP28], the protein stability index amounted to 2.81 ± 0.18 (doa10∆), 3.17 ± 0.11 (pdr5∆), 3.27 ± 0.25 (san1∆) and 2.79 ± 0.11 (ubr1∆).

Values taken from the supplement of paper PMC9732359.
